# Paper PMC10397247
# T1: 4H264-bA
# T1 chain: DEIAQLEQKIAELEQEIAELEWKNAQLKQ
# T2: 4H2859-bA
# T2 chain: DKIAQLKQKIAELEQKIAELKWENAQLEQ
# T3: 4H3427-bA
# T3 chain: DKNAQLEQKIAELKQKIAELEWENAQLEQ
# T4: 4H3041-bA
# T4 chain: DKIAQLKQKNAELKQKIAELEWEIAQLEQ
# T5: 4H730-bA
# T5 chain: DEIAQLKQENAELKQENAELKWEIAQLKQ
# T6: 4H3364-bA
# T6 chain: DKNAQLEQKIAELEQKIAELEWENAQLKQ
# T7: P5SH
# T7 chain: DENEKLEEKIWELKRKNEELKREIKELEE
# T8: 4H3297-bA
# T8 chain: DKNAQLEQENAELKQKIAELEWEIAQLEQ
# T9: O8-bS
# T9 chain: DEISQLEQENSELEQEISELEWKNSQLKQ
# T10: 4H949-bA
# T10 chain: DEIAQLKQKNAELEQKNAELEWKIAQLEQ
# T11: 4H2931-bA
# T11 chain: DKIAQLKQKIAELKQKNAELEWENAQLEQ
# T12: 4H932-bA
# T12 chain: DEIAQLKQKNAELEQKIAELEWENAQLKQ
# T13: 4H796-bA
# T13 chain: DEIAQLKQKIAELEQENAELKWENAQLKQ
# T14: 4H2760-bA
# T14 chain: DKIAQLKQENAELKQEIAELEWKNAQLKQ
# T15: 4H349-bA
# T15 chain: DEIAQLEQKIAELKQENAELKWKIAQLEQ
# T16: 4H56-bA
# T16 chain: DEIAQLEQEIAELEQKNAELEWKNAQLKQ
# T17: 4H3381-bA
# T17 chain: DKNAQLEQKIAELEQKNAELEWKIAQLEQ
# T18: 4H3628-bN
# T18 chain: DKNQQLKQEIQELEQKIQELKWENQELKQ
# T19: 4H906-bN
# T19 chain: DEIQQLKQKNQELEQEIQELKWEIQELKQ
# T20: 4H3277-bN
# T20 chain: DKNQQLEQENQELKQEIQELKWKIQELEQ
# T21: 4H1449-bN
# T21 chain: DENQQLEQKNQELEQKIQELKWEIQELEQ
# T22: 4H1544-bN
# T22 chain: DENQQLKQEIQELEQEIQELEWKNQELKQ
# T23: P6bH1
# T23 chain: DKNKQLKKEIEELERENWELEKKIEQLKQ
# T24: 4H1985-bN
# T24 chain: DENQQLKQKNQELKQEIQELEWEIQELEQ
# T25: 4H3926-bN
# T25 chain: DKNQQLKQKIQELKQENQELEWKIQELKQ
# T26: 4H1348-bN
# T26 chain: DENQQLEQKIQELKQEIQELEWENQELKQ
# T27: 4H591-bN
# T27 chain: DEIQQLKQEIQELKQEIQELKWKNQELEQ
# T28: 4H3162-bN
# T28 chain: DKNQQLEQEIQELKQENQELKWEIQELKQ
# T29: 4H626-bN
# T29 chain: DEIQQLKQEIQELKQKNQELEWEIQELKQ
# T30: 4H850-bN
# T30 chain: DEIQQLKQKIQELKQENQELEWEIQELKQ
# T31: 4H1710-bN
# T31 chain: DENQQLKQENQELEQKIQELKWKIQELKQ
# T32: 4H3613-bN
# T32 chain: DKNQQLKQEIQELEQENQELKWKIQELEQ
# T33: 4H3858-bN
# T33 chain: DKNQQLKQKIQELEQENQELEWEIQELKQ
# T34: 4H3817-bN
# T34 chain: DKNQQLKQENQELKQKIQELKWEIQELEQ
# T35: 4H570-bN
# T35 chain: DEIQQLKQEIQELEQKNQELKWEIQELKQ
# T36: 4H3298-bN
# T36 chain: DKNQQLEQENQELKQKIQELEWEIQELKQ
# T37: 4H3175-bN
# T37 chain: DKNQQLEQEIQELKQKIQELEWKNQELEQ
# T38: 4H3462-bN
# T38 chain: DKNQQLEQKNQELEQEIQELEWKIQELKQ
# T39: 4H1899-bN
# T39 chain: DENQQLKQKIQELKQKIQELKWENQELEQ
# T40: 4H3497-bN
# T40 chain: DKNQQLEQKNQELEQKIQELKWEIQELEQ
# T41: 4H1373-bN
# T41 chain: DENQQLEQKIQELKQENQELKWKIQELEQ
# T42: 4H3974-bN
# T42 chain: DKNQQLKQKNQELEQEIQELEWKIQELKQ
# T43: O7
# T43 chain: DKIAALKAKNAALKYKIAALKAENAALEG
# T44: O16
# T44 chain: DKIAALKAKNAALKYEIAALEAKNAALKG
# T45: O14
# T45 chain: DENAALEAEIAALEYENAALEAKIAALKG
# T46: O13
# T46 chain: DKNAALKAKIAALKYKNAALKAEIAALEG
# T47: O9
# T47 chain: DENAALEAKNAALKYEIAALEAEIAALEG
# T48: O11
# T48 chain: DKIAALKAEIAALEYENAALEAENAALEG
# T49: O4
# T49 chain: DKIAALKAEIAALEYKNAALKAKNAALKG
# T50: O12
# T50 chain: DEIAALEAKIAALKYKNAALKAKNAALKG
# T51: O5
# T51 chain: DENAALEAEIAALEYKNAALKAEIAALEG
# T52: O6
# T52 chain: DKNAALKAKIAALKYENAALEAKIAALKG
# T53: P3A-bS
# T53 chain: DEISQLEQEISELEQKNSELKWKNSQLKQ
# T54: O3
# T54 chain: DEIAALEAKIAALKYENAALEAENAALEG
# T55: O2
# T55 chain: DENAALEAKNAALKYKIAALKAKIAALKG
# T56: O8
# T56 chain: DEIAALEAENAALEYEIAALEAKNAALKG
# T57: O15
# T57 chain: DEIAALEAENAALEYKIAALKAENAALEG
# T58: 4H906-bA
# T58 chain: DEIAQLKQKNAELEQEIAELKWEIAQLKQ
# T59: 4H953-bN
# T59 chain: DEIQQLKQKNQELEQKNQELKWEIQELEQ
# T60: 4H584-bA
# T60 chain: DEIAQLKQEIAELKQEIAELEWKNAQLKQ
# T61: 4H850-bA
# T61 chain: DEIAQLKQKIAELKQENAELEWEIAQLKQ
# T62: 4H570-bA
# T62 chain: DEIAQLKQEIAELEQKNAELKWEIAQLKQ
# T63: 4H619-bA
# T63 chain: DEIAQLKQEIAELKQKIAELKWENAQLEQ
# Assays:
# Assay in all cases: two-hybrid library CCNG1;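 also: natural log of median RNA to DNA barcode read ratio; higher means stronger binding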
# 4H264-bA = molecular target: T1, 4H264-bA
# 4H2859-bA = molecular target: T2, 4H2859-bA
# 4H3427-bA = molecular target: T3, 4H3427-bA
# 4H3041-bA = molecular target: T4, 4H3041-bA
# 4H730-bA = molecular target: T5, 4H730-bA
# 4H3364-bA = molecular target: T6, 4H3364-bA
# P5SH = molecular target: T7, P5SH
# 4H3297-bA = molecular target: T8, 4H3297-bA
# O8-bS = molecular target: T9, O8-bS
# 4H949-bA = molecular target: T10, 4H949-bA
# 4H2931-bA = molecular target: T11, 4H2931-bA
# 4H932-bA = molecular target: T12, 4H932-bA
# 4H796-bA = molecular target: T13, 4H796-bA
# 4H2760-bA = molecular target: T14, 4H2760-bA
# 4H349-bA = molecular target: T15, 4H349-bA
# 4H56-bA = molecular target: T16, 4H56-bA
# 4H3381-bA = molecular target: T17, 4H3381-bA
# 4H3628-bN = molecular target: T18, 4H3628-bN
# 4H906-bN = molecular target: T19, 4H906-bN
# 4H3277-bN = molecular target: T20, 4H3277-bN
# 4H1449-bN = molecular target: T21, 4H1449-bN
# 4H1544-bN = molecular target: T22, 4H1544-bN
# P6bH1 = molecular target: T23, P6bH1
# 4H1985-bN = molecular target: T24, 4H1985-bN
# 4H3926-bN = molecular target: T25, 4H3926-bN
# 4H1348-bN = molecular target: T26, 4H1348-bN
# 4H591-bN = molecular target: T27, 4H591-bN
# 4H3162-bN = molecular target: T28, 4H3162-bN
# 4H626-bN = molecular target: T29, 4H626-bN
# 4H850-bN = molecular target: T30, 4H850-bN
# 4H1710-bN = molecular target: T31, 4H1710-bN
# 4H3613-bN = molecular target: T32, 4H3613-bN
# 4H3858-bN = molecular target: T33, 4H3858-bN
# 4H3817-bN = molecular target: T34, 4H3817-bN
# 4H570-bN = molecular target: T35, 4H570-bN
# 4H3298-bN = molecular target: T36, 4H3298-bN
# 4H3175-bN = molecular target: T37, 4H3175-bN
# 4H3462-bN = molecular target: T38, 4H3462-bN
# 4H1899-bN = molecular target: T39, 4H1899-bN
# 4H3497-bN = molecular target: T40, 4H3497-bN
# 4H1373-bN = molecular target: T41, 4H1373-bN
# 4H3974-bN = molecular target: T42, 4H3974-bN
# O7 = molecular target: T43, O7
# O16 = molecular target: T44, O16
# O14 = molecular target: T45, O14
# O13 = molecular target: T46, O13
# O9 = molecular target: T47, O9
# O11 = molecular target: T48, O11
# O4 = molecular target: T49, O4
# O12 = molecular target: T50, O12
# O5 = molecular target: T51, O5
# O6 = molecular target: T52, O6
# P3A-bS = molecular target: T53, P3A-bS
# O3 = molecular target: T54, O3
# O2 = molecular target: T55, O2
# O8 = molecular target: T56, O8
# O15 = molecular target: T57, O15
# 4H906-bA = molecular target: T58, 4H906-bA
# 4H953-bN = molecular target: T59, 4H953-bN
# 4H584-bA = molecular target: T60, 4H584-bA
# 4H850-bA = molecular target: T61, 4H850-bA
# 4H570-bA = molecular target: T62, 4H570-bA
# 4H619-bA = molecular target: T63, 4H619-bA
binder,measurement,setting,value
DEIAQLEQKIAELEQEIAELEWKNAQLKQ [4H264-bA],interaction score,4H264-bA,1.38
same,interaction score,4H2859-bA,1.6
same,interaction score,4H3427-bA,1.19
same,interaction score,4H3041-bA,2.21
same,interaction score,4H730-bA,-1.63
same,interaction score,4H3364-bA,0.942
same,interaction score,P5SH,1.79
same,interaction score,4H3297-bA,0.896
same,interaction score,O8-bS,-1.91
same,interaction score,4H949-bA,-0.323
same,interaction score,4H2931-bA,2.07
same,interaction score,4H932-bA,-0.419
same,interaction score,4H796-bA,-0.521
same,interaction score,4H2760-bA,-0.475
same,interaction score,4H349-bA,-0.396
same,interaction score,4H56-bA,-0.504
same,interaction score,4H3381-bA,0.311
DENQQLEQKIQELKQEIQELEWENQELKQ [4H1348-bN],interaction score,4H3628-bN,-0.12
same,interaction score,4H906-bN,-0.116
same,interaction score,4H3277-bN,-0.122
same,interaction score,4H1449-bN,-0.5
same,interaction score,4H1544-bN,-1.46
same,interaction score,P6bH1,-0.556
same,interaction score,4H1985-bN,-0.781
same,interaction score,4H3926-bN,-0.478
same,interaction score,4H1348-bN,-1.55
same,interaction score,4H591-bN,-1.4
same,interaction score,4H3162-bN,-0.0481
same,interaction score,4H626-bN,-0.135
same,interaction score,4H850-bN,0.761
same,interaction score,4H1710-bN,-1.09
same,interaction score,4H3613-bN,-0.0173
same,interaction score,4H3858-bN,-0.748
same,interaction score,4H3817-bN,-0.958
same,interaction score,4H570-bN,0.123
same,interaction score,4H3298-bN,0.08
same,interaction score,4H3175-bN,-0.302
same,interaction score,4H3462-bN,-0.171
same,interaction score,4H1899-bN,-0.707
same,interaction score,4H3497-bN,-0.431
same,interaction score,4H1373-bN,-0.955
same,interaction score,4H3974-bN,0.224
DKIAALKAEIAALEYENAALEAENAALEG [O11],interaction score,O7,-1.85
same,interaction score,O16,-2.6
same,interaction score,O14,-2.48
same,interaction score,O13,-1.9
same,interaction score,O9,-2.14
same,interaction score,O11,-2.47
same,interaction score,O4,1.77
same,interaction score,O12,2
same,interaction score,O5,-2.06
same,interaction score,O6,-2.37
same,interaction score,P3A-bS,0.868
same,interaction score,O3,-1.74
same,interaction score,O2,-2.18
same,interaction score,O8,-2.51
same,interaction score,O15,-2.22
DEIAQLKQEIAELEQKNAELKWEIAQLKQ [4H570-bA],interaction score,4H906-bA,0.277
same,interaction score,4H953-bN,-0.0403
same,interaction score,4H584-bA,-1.33
same,interaction score,4H850-bA,1.98
same,interaction score,O11,-0.882
same,interaction score,4H570-bA,-0.223
same,interaction score,4H619-bA,-1.3
